B1: WW domain-containing oxidoreductase (Homo sapiens), Q9NZC7 (parent)
chain: MAALRYAGLDDTDSEDELPPGWEERTTKDGWVYYANHTEEKTQWEHPKTGKRKRVAGDLPYGWEQETDENGQVFFVDHINKRTTYLDPRLAFTVDDNPTKPTTRQRYDGSTTAMEILQGRDFTGKVVVVTGANSGIGFETAKSFALHGAHVILACRNMARASEAVSRILEEWHKAKVEAMTLDLALLRSVQHFAEAFKAKNVPLHVLVCNAATFALPWSLTKDGLETTFQVNHLGHFYLVQLLQDVLCRSAPARVIVVSSESHRFTDINDSLGKLDFSRLSPTKNDYWAMLAYNRSKLCNILFSNELHRRLSPRGVTSNAVHPGNMMYSNIHRSWWVYTLLFTLARPFTKSMQQGAATTVYCAAVPELEGLGGMYFNNCCRCMPSPEAQSEETARTLWALSERLIQERLGSQSG
B2: Receptor tyrosine-protein kinase erbB-4 (Mus musculus), Q61527 (parent)
chain: MKLATGLWVWGSLLMAAGTVQPSASQSVCAGTENKLSSLSDLEQQYRALRKYYENCEVVMGNLEITSIEHNRDLSFLRSIREVTGYVLVALNQFRYLPLENLRIIRGTKLYEDRYALAIFLNYRKDGNFGLQELGLKNLTEILNGGVYVDQNKFLCYADTIHWQDIVRNPWPSNMTLVSTNGSSGCGRCHKSCTGRCWGPTENHCQTLTRTVCAEQCDGRCYGPYVSDCCHRECAGGCSGPKDTDCFACMNFNDSGACVTQCPQTFVYNPTTFQLEHNFNAKYTYGAFCVKKCPHNFVVDSSSCVRACPSSKMEVEENGIKMCKPCTDICPKACDGIGTGSLMSAQTVDSSNIDKFINCTKINGNLIFLVTGIHGDPYNAIDAIDPEKLNVFRTVREITGFLNIQSWPPNMTDFSVFSNLVTIGGRVLYSGLSLLILKQQGITSLQFQSLKEISAGNIYITDNSNLCYYHTINWTTLFSTINQRIVIRDNRRAENCTAEGMVCNHLCSNDGCWGPGPDQCLSCRRFSRGKICIESCNLYDGEFREFENGSICVECDSQCEKMEDGLLTCHGPGPDNCTKCSHFKDGPNCVEKCPDGLQGANSFIFKYADQDRECHPCHPNCTQGCNGPTSHDCIYYPWTGHSTLPQHARTPLIAAGVIGGLFILVIMALTFAVYVRRKSIKKKRALRRFLETELVEPLTPSGTAPNQAQLRILKETELKRVKVLGSGAFGTVYKGIWVPEGETVKIPVAIKILNETTGPKANVEFMDEALIMASMDHPHLVRLLGVCLSPTIQLVTQLMPHGCLLDYVHEHKDNIGSQLLLNWCVQIAKGMMYLEERRLVHRDLAARNVLVKSPNHVKITDFGLARLLEGDEKEYNADGGKMPIKWMALECIHYRKFTHQSDVWSYGVTIWELMTFGGKPYDGIPTREIPDLLEKGERLPQPPICTIDVYMVMVKCWMIDADSRPKFKELAAEFSRMARDPQRYLVIQGDDRMKLPSPNDSKFFQNLLDEEDLEDMMDAEEYLVPQAFNIPPPIYTSRTRIDSNRSEIGHSPPPAYTPMSGNQFVYQDGGFATQQGMPMPYRATTSTIPEAPVAQGATAEMFDDSCCNGTLRKPVAPHVQEDSSTQRYSADPTVFAPERNPRGELDEEGYMTPMHDKPKQEYLNPVEENPFVSRRKNGDLQALDNPEYHSASSGPPKAEDEYVNEPLYLNTFANALGSAEYMKNSVLSVPEKAKKAFDNPDYWNHSLPPRSTLQHPDYLQEYSTKYFYKQNGRIRPIVAENPEYLSEFSLKPGTMLPPPPYRHRNTVV
partner: B1 chain

One assay covers variants of B1. The conditions noted are these: with erbb4_mouse Erbb4, Q61527.
On to Y33R, for which the “effect of a mutation on the interaction” value is recorded as “disrupting interaction”.

The variants in another assay derive from B2. To be noted: with wwox_human WWOX, Q9NZC7.
Consider Y1035A;Y1301A, for which the “effect of a mutation on the interaction” value is “disrupting interaction”.
